{
  "source": "paper PMC6351565",
  "about": "(2019)",
  "binders": {"B1": {"name": "Site 4 peptide (pS366) (peptide)", "chain": "Ac-TLPRSS[pS]MAAGLEK-NH2", "SMILES": "CSCC[C@H](NC(=O)[C@H](COP(=O)(O)O)NC(=O)[C@H](CO)NC(=O)[C@H](CO)NC(=O)[C@H](CCCNC(=N)N)NC(=O)[C@@H]1CCCN1C(=O)[C@H](CC(C)C)NC(=O)[C@@H](NC(C)=O)[C@@H](C)O)C(=O)N[C@@H](C)C(=O)N[C@@H](C)C(=O)NCC(=O)N[C@@H](CC(C)C)C(=O)N[C@@H](CCC(=O)O)C(=O)N[C@@H](CCCCN)C(N)=O"}, "B2": {"name": "Site 2 peptide (pT340) (peptide)", "chain": "Ac-LSDSYSN[pT]LPVRKS-NH2", "SMILES": "CC(=O)N[C@@H](CC(C)C)C(=O)N[C@@H](CO)C(=O)N[C@@H](CC(=O)O)C(=O)N[C@@H](CO)C(=O)N[C@@H](Cc1ccc(O)cc1)C(=O)N[C@@H](CO)C(=O)N[C@@H](CC(N)=O)C(=O)N[C@H](C(=O)N[C@@H](CC(C)C)C(=O)N1CCC[C@H]1C(=O)N[C@H](C(=O)N[C@@H](CCCNC(=N)N)C(=O)N[C@@H](CCCCN)C(=O)N[C@@H](CO)C(N)=O)C(C)C)[C@@H](C)OP(=O)(O)O"}, "B3": {"name": "Site 3 peptide (pT360) (peptide)", "chain": "Ac-ATTENK[pT]LPRSSS-NH2", "SMILES": "CC(=O)N[C@@H](C)C(=O)N[C@H](C(=O)N[C@H](C(=O)N[C@@H](CCC(=O)O)C(=O)N[C@@H](CC(N)=O)C(=O)N[C@@H](CCCCN)C(=O)N[C@H](C(=O)N[C@@H](CC(C)C)C(=O)N1CCC[C@H]1C(=O)N[C@@H](CCCNC(=N)N)C(=O)N[C@@H](CO)C(=O)N[C@@H](CO)C(=O)N[C@@H](CO)C(N)=O)[C@@H](C)OP(=O)(O)O)[C@@H](C)O)[C@@H](C)O"}},
  "note": "Where no end group is shown, it is not given here. [ ]: non-standard residue; d: D form. pT = C[C@@H](OP(=O)(O)O)[C@H](N)C(=O)O; pS = N[C@@H](COP(=O)(O)O)C(=O)O",
  "data": [
    {"target": "T1, 14-3-3θ (human, UniProt P27348 1-245)", "T1 chain": "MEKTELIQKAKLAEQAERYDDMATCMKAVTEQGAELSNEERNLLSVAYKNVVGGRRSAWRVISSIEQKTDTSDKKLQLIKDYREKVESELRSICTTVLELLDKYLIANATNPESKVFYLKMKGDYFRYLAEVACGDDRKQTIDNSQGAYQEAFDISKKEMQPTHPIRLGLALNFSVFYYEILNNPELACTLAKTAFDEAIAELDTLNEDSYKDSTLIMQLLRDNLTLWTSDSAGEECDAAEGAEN", "experiment": "ITC", "units": {"Kd": "µM"}, "values": [
      {"binder": "B1", "Kd": 16.5},
      {"binder": "B2", "Kd": 5.5},
      {"binder": "AQPKSL[pS]PPQSQSKLSDSYSN[pT]LPVRKS", "note": "[Sites 1,2 peptide (pS325/pT340)]", "Kd": 16.2},
      {"binder": "B3", "Kd": 15.5}
    ]}
  ]
}
